Four substances from US20150274802A1 can be followed below.

“And” between values parts separate entries of the source, which are not always exact repeats. Identical values can stand only once. Bounds are passed on as bounds.

In experiment [1] the target is human IGF-1 receptor (human) (UniProt P08069). The experiment in a line: competition SPA, [125I]IGF-1.
The target in experiment [2] is human insulin receptor (human) (UniProt P06213). As to the kind of experiment: competition SPA, [125I]insulin.
The target of experiment [3] is human IGF-1 receptor (human) (UniProt P08069). The experiment in a line: cell-based or functional assay.
The target of a further experiment is type A insulin receptor (UniProt P06213). As to the kind of experiment: cell-based or functional assay.
In another experiment the target is type B insulin receptor (UniProt P06213). As to the kind of experiment: cell-based or functional assay.

For “IGF-1 A:In (1-17)-IGF-1 B(18-30) (from UniProt P05019 18-30) (ligand)”, in experiment [1], the % IGF-1 (in test) amounted to 0.9% and the % native IGF-1 activity (0.55 nM) was determined as 0.9%. Besides, in experiment [2], the % insulin (in test) is 11.3% and 20.1%; the % native insulin activity (0.6 nM) was 22.5% and 24.2%; the IC50 (as a rule, the concentration that gives 50% inhibition) was 2.67 nM and 2.48 nM.
For “MIU-67: B2, C8-PEG10K di-PEGylated MIU-35 (ligand)”, the values for the % Insulin Activity (in vitro, assay not named) (in experiment [3]; with type A insulin receptor; with type B insulin receptor) were below 0.1%, 0.2% and 0.1%, respectively.
For “MIU-68: B2, B22-PEG10K di-PEGylated MIU-35 (ligand)”, in that order: below 0.1%, 0.4% and 0.1%.
For “MIU-69: B2, A14-PEG10K di-PEGylated MIU-35 (ligand)”, in that order: below 0.1%, 1% and 0.5%.
